Data from patent US10723806B2, “Method of introducing nucleic acid into plant cells” (RIKEN, priority 2012, dated 2020).
Ends that are not written are not given here.

Legend:
[1] = test system: Nicotiana benthamiana leaf; assay: In-vivo transfection of tobacco leaf with RLuc-encoding pDNA complex, Renilla luciferase assay; details: for RLuc expression (relative photometric unit/protein weight): peptide alone as carrier of pDNA, N/P ratio 0.5, 12 hours, benthamiana tobacco leaf; for transfection efficiency (RLuc assay) compared to complexes having other N/P ratios: N/P ratio 0.5, tobacco leaf; for incubation time showing the highest transfection efficiency: tobacco leaf, sampled 12 to 144 hours
Experimental: In-vivo transfection experiment using the tobacco leaf was performed to evaluate an ability of a carrier peptide-pDNA complex to deliver a gene into plant cells through a cell wall. Complexes of pDNA encoding RLuc and GFP serving as a reporter gene with R9-BP 100 and (KH)9-BP100 were directly allowed to permeate into Nicotiana benthamiana leaf. To determine the most efficient N/P ratio of a pDNA complex in the range of 0.1 to 20, a transfection efficiency is quantitatively characterized by use of RLuc assay.
A target plant was prepared as follows. Seeds of benthamiana tobacco were germinated in a pot containing a culture medium, which is a mixture of a soil (Pro-Mix) and vermiculite in a ratio of 2:1. The benthamiana tobacco plant was grown up to three weeks in a plant incubator (Biotron NK System) under constant light irradiation for 24 hours at a temperature of 29° C.
Leaves of benthamiana tobacco were sufficiently spread and directly impregnated with a solution (about 100 μL) of a complex comprising pDNA encoding green fluorescence protein (GFP) and Renilla luciferase (RLuc) by use of a syringe without a needle. The benthamiana tobacco plants thus treated were incubated in a plant incubator separately at a temperature of 29° C. and 21° C. under constant light irradiation for 16 hours per day until 6 days. To quantitatively evaluate RLuc gene expression, Renilla luciferase assay (Promega) was performed in accordance with the protocol provided by a manufacturer (n=4).
To be described in brief, sampling of the leaf impregnated was performed periodically in the range of 12 hours to 144 hours by cutting a square (1 cm^2) around an impregnated section. The samples each were lysed by use of Renilla Luciferase Assay Lysis Buffer (Promega). The lysate was briefly centrifuged and the supernatant was mixed with Renilla Luciferase Assay Substrate and Renilla Luciferase Assay Buffer (Promega). Gene expression was evaluated by a multi-mode microplate reader (Spectra MAX M3, Molecular Devices Corporation) based on the intensity (relative photometric unit) of photoluminescence. The amount of protein in the supernatant was determined by BCA protein assay (Pierce Biotechnology) to obtain a relative photometric unit/protein weight (RLU/mg). A transformant with RLuc gene-encoding pDNA via Agrobacterium (Agrobacterium) was used as a positive control in the experiment.
The statistical difference in transfection efficiency was determined by independent t-test using bilateral distribution. It was regarded that a statistically-significant difference is present at p<0.05. The data obtained in a cell survivability experiment are shown as an average±a standard deviation (n=4).

[2] = Dynamic light scattering (DLS) size and PDI of carrier peptide-pDNA complexes; format: physicochemical; details: complex with pDNA
Experimental: Ionic complexes of carrier peptides (R9-BP100 and (KH)9-BP100) different in N/P ratio and pDNA encoding a reporter gene were prepared and characterized by use of dynamic light scattering (DLS), an atomic force microscope (AFM), a zeta potential meter and agarose gel electrophoresis. The N/P ratio herein refers to the ratio of the number of amine groups from the carrier peptide and the number of phosphate groups from pDNA.
(§1) Two types of pDNA, i.e., green fluorescence protein (GFP)-encoding P35S-GFP (S65T)-TNOS and Renilla luciferase (RLuc)-encoding P35S-RLuc-TNOS, were used as reporter genes. All pDNA molecules were amplified in a competent DH5α E. coli (Takara) and purified by an Endofree Plasmid Giga Kit (Qiagen). To prepare a carrier peptide-pDNA complex, a carrier peptide (0.5 g/L) was mixed with a pDNA solution (about 1.0 mg/mL) so as to have different N/P ratios (0.5, 1, 2, 5, 10 and 20) at 25° C. Immediately after mixing, complexes were characterized by a zeta potential meter (Zetasizer Nano-ZS, Malvern Instruments Ltd) and an atomic force microscope (Seiko Instruments).
(§2) Solutions containing complexes each were diluted with ultra-pure water (MilliQ) up to a final volume of 800 μL and subjected to measurement of zeta potential and size. The zeta potential and zeta shift of the solution samples were measured three times by a zeta potential meter and averages of data were obtained by use of Zetasizer software ver 6.20 (Malvern Instruments Ltd). Dynamic light scattering (DLS) was performed to determine hydrodynamic diameters. Subsequently, polydispersion indexes (PDI) were determined by use of a zeta nanosizer (Zetasizer software ver 6.20) using He—Ne laser (633 nm) at 25° C. and a backscattering detection angle of 173°. Observation by an AFM was performed by fixing a complex solution on cut mica and using a silicon cantilever in air at room temperature in a tapping mode at a spring constant of 1.3 N/m. A cantilever tip rotation effect was obtained by calculation and true dimensions of complexes were obtained by the method previously reported (K. Numata, Y. Kikkawa, T. Tsuge et al., Macromol Biosci 6 (1), 41, 2006; K. Numata, T. Hirota, Y. Kikkawa et al., Biomacromolecules 5 (6), 2186, 2004). For gel retardation assay, each sample (40 μL) containing 1.0 μg of pDNA was mixed with a loading buffer, analyzed on a 1% agarose gel (TAE buffer, 100 V, 30 minutes) and stained with ethidium bromide.

[3] = Zeta potential of carrier peptide-pDNA complexes; format: physicochemical; details: pDNA complex
Experimental: as §1, §2

pDNA = assay: Gel retardation assay (agarose gel electrophoresis) of carrier peptide-pDNA complexes; format: physicochemical; details: pDNA complex
Experimental: as §2

Arabidopsis thaliana L. = assay: Introduction of giant DNA (80 kbp luciferase plasmid) into Arabidopsis thaliana L.; format: in vivo; details: complex with 80 kbp luciferase plasmid, twelve hours after introduction
Experimental: A plasmid (80 kbp) encoding luciferase was prepared by use of Bacillus subtilis and introduced into Arabidopsis thaliana L. by use of a carrier peptide ((KH)9-BP100). Twelve hours after introduction of the complex, luciferase was extracted from the leaf and subjected to quantitative analysis.

[4] = test system: mitochondria of leaf of Arabidopsis thaliana L.; assay: Organelle selective gene introduction, Renilla luciferase expression in mitochondria of Arabidopsis thaliana L. leaf; format: in vivo; details: complex with pDONRcox2p: rluc/gfp
Experimental: A carrier peptide comprising a mitochondrial transit sequence (Cytochrome c oxidase subunit IV (yeast)) and a polycationic sequence was synthesized. In other words, ([…]) (SEQ ID NO: 43) was synthesized by the solid phase peptide synthesis. The mitochondrial transit sequence is represented by MLSLRQSIRFFK (SEQ ID NO: 44) and the polycationic sequence is represented by KHKHKHKHKHKHKHKHKH) (SEQ ID NO: 22). Then, a complex was prepared from the carrier peptide synthesized and a plasmid vector (pDONRcox2p: rluc/gfp) that can function in mitochondria. In the same manner as in the above Examples, the complex was introduced into a leaf of Arabidopsis thaliana L. and expression of a reporter gene (Renilla Luciferase) in the mitochondria was quantitatively evaluated. Using a promoter (cox) which specifically functions in mitochondria, whether the complex was specifically introduced into the mitochondria was determined.

[5] = N/P ratio within the range of 2 to 20

Row | Substance | RLuc expression (relative photometric unit/protein weight) [1] [RLU/mg] | PDI ([2]; N/P ratio 0.5) | Size (average hydrodynamic diameter, DLS) ([2]; N/P ratio 0.5) [nm] | PDI ([2]; N/P ratio 1) | Size (average hydrodynamic diameter, DLS) ([2]; N/P ratio 1) [nm] | PDI ([2]; N/P ratio 2) | Size (average hydrodynamic diameter, DLS) ([2]; N/P ratio 2) [nm] | PDI ([2]; N/P ratio 5) | Size (average hydrodynamic diameter, DLS) ([2]; N/P ratio 5) [nm] | PDI ([2]; N/P ratio 10) | Size (average hydrodynamic diameter, DLS) ([2]; N/P ratio 10) [nm] | PDI ([2]; N/P ratio 20) | Size (average hydrodynamic diameter, DLS) ([2]; N/P ratio 20) [nm] | zeta potential ([3]; N/P ratio of 0.5 and 1) | zeta potential [3, 5] | transfection efficiency (RLuc assay) compared to complexes having other N/P ratios ([1]; pDNA complex) | incubation time showing the highest transfection efficiency ([1]; pDNA complex) [h] | further results
1 | KHKHKHKHKHKHKHKHKH [(KH)9, reference compound] | 340±60 |  |  |  |  |  |  |  |  |  |  |  |  |  |  |  |  | 
2 | KHKHKHKHKHKHKHKHKHKKLFKKILKYL-NH2 [(KH)9-BP100, tested as ionic complex with pDNA] |  | 0.31 | 291 | 0.30 | 322 | 0.23 | 139 | 0.23 | 106 | 0.23 | 96 | 0.24 | 114 | negative values | positive values | highest transfection efficiency | 12 | mobility of pDNA in agarose gel electrophoresis (pDNA; N/P ratio up to 10): a small amount of pDNA migrated; luciferase activity in leaf (Arabidopsis thaliana L.): efficient luciferase activity was confirmed
3 | KKLFKKILKYL [BP100, cell-penetrating peptide alone, synthesized for controls, reference compound] | 120±70 |  |  |  |  |  |  |  |  |  |  |  |  |  |  |  |  | 
4 | MLSLRQSIRFFKKHKHKHKHKHKHKHKHKH [SEQ ID NO: 43] |  |  |  |  |  |  |  |  |  |  |  |  |  |  |  |  |  | gene introduction efficiency to mitochondria (Rluc) among N/P=0.5, 1 and 2 [4]: a highly significant difference was shown
5 | RRRRRRRRRKKLFKKILKYL-NH2 [R9-BP100, tested as ionic complex with pDNA] |  | 0.34 | 319 | 0.38 | 321 | 0.21 | 151 | 0.21 | 127 | 0.23 | 114 | 0.25 | 116 | negative values | positive values | highest transfection efficiency | 12 | mobility of pDNA in agarose gel electrophoresis (pDNA; N/P ratio of 0.5 to 2): the same mobility as that of a free pDNA; mobility of pDNA in agarose gel electrophoresis (pDNA; N/P ratio of 10 and 20): no mobility was observed; time-dependent transfection behavior ([1]; pDNA complex, compared to (KH)9-BP100): quick and short transfection behavior
